In patent US20200138864A1 (CRAGE MEDICAL, published 2020):

Experiments:
[1] = molecular target: T1, reference peptide RMFS1 complexed with HLA on T2 cells (T2/RMFS1); assay: flow cytometry on T2/RMFS1 cells
T1 construct: whole, on cells

[2] = molecular target: T2, reference peptide RMFS2 complexed with HLA on T2 cells (T2/RMFS2); assay: flow cytometry on T2/RMFS2 cells
T2 construct: whole, on cells

[3] = molecular target: T3, RMF/HLA.A0201 complex (WT1 peptide RMF complexed with recombinant HLA.A0201-BSP and human β2m) (human, labeled with a biotinylation kit (BirA) on the BSP); assay: SPR (Biacore T200), 1:1 Langmuir fit
T3 construct: also called RMF/HLA complex; WT1 peptide (RMF) complexed with HLA; not shown: biotin protein ligase BirA substrate peptide (BSP)

[4] = molecular target: T3, RMF/HLA.A0201 complex (WT1 peptide RMF …); assay: ELISA with 2.5, 0.5 and 0.2 ug/ml RMF/HLA complex, scFv clone

B1: antigen binding unit 2 (ABU2) (scFv)
scFv: GVQLVESGAEVKKPGASVKVSCKASGYTFTELSMHWVRQAPGKGLEWMGLVDPEDGETIYAEKFQGRVTITADTSTDTAYMELSSLRSEDTAVYYCATDLAAGTNDYWGKGTLVTVSSGGGGSGGGGSGGGGSQAVVTQEPSVTVSPGGTVTLTCGSDTGAVTSGHYPYWFQQKPGQAPRTLIYDTSNKHSWTPARFSGSLLGGKAALTLSGAQPDDEADYYCLLSYSGEWVFGGGTKVTVL
notes: also called parent ABU2; parental ABU2
- binding result [1]: no binding
- binding result [2]: no binding

B2: ABU2 (ScFv_Fc) (Fc fusion, not shown: a dimerising Fc or GST)
scFv: GVQLVESGAEVKKPGASVKVSCKASGYTFTELSMHWVRQAPGKGLEWMGLVDPEDGETIYAEKFQGRVTITADTSTDTAYMELSSLRSEDTAVYYCATDLAAGTNDYWGKGTLVTVSSGGGGSGGGGSGGGGSQAVVTQEPSVTVSPGGTVTLTCGSDTGAVTSGHYPYWFQQKPGQAPRTLIYDTSNKHSWTPARFSGSLLGGKAALTLSGAQPDDEADYYCLLSYSGEWVFGGGTKVTVL
notes: The format is printed only on the sheet; also called parent ABU2 as scFv-Fc
- Kd [3]: 1470 pM

B3: ABU3 (ScFv_Fc) (Fc fusion, not shown: a dimerising Fc or GST)
scFv: GVQLVESGAEVKKPGASVKVSCKASGYTFTELSMHWVRQAPGKGLEWMGLVDPEDGETIYAEKFQGRVTITADTSTDTAYMELSSLRSEDTAVYYCATDLAAGTNDYWGKGTLVTVSSGGGGSGGGGSGGGGSQAVVTQEPSVTVSPGGTVTLTCGSDSGPVTRGHYPYWFQQKPGQAPRTLIDDTSRKHSWTPARFSGSLLGGKAALTLSGAQPDDEADYYCLLSYSGEWVFGGGTKVTVL
notes: The format is printed only on the sheet
- Kd [3]: 46.7 pM

B4: ABU5 (scFv)
scFv: GVQLVESGAEVKKPGASVKVSCKASGYTFTELSMHWVRQAPGKGLEWMGLVVPDDGETIYAEKFQGRVTITADTSTDTAYMELSSLRSEDTAVYYCATDLAAGTNDYWGKGTLVTVSSGGGGSGGGGSGGGGSQAVVTQEPSVTVSPGGTVTLTCGSDTGAVTSGHYPYWFQQKPGQAPRTLIYDTSNKHSWTPARFSGSLLGGKAALTLSGAQPDDEADYYCLLSYSGEWVFGGGTKVTVL
- binding result [4]: binds

B5: ABU4 (scFv)
scFv: GVQLVESGAEVKKPGASVKVSCKASGYTFTELSMHWVRQAPGKGLEWMGLVVPADGETIYAEKFQGRVTITADTSTDTAYMELSSLRSEDTAVYYCATDLAAGTNDYWGKGTLVTVSSGGGGSGGGGSGGGGSQAVVTQEPSVTVSPGGTVTLTCGSDTGAVTSGHYPYWFQQKPGQAPRTLIYDTSNKHSWTPARFSGSLLGGKAALTLSGAQPDDEADYYCLLSYSGEWVFGGGTKVTVL
- binding result [4]: binds
